Biological target: T1, human high affinity trimeric IL-2 receptor (CD25/CD122/CD132) (human, UniProt P01589 22-272; P14784 27-551; P31785 23-369)
T1 sequence 1: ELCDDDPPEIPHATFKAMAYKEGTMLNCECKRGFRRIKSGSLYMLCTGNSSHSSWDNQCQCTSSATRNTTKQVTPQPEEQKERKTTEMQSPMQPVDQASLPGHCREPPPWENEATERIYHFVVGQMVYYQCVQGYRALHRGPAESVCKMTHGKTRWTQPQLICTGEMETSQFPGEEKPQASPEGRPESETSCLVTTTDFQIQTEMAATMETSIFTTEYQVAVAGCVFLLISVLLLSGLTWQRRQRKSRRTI
T1 sequence 2: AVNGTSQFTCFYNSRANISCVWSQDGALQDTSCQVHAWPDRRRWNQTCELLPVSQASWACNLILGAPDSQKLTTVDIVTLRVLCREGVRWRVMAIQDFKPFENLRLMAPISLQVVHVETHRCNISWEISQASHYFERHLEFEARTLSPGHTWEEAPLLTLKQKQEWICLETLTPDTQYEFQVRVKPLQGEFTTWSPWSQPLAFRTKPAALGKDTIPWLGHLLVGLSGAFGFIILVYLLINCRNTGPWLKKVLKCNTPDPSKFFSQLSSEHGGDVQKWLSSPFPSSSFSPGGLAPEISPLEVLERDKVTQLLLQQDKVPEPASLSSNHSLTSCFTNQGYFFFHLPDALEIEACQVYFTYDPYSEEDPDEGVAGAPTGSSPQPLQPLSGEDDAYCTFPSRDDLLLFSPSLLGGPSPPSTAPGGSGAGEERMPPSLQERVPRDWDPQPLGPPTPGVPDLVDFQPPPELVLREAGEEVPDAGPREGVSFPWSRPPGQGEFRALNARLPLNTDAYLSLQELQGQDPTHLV
T1 sequence 3: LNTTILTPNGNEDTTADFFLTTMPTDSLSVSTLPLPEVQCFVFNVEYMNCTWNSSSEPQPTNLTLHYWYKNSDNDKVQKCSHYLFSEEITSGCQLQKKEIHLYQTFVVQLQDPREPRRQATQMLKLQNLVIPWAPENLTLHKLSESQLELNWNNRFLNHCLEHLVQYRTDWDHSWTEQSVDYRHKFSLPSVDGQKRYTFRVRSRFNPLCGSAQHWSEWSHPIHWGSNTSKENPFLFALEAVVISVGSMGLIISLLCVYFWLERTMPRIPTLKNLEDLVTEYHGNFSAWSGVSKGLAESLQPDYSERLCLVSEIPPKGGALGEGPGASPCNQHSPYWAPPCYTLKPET
Assay: cell-based or functional assay

B1: STK-012 (N-terminally 40 kD PEGylated des-Ala1 REK hIL2 mutein, STK-011) (ligand)
chain: PTSSSTKKTQLQLEHLRLDLEMILNGINNYKNPKLTRMLTFKFYMPKKATELKHLQCLEEELKPLEEVLNLAQSKNFHLRPRDLISNINVIVLELKGSETTFMCEYADETATIVEFLNRWITFCKSIISTLT
modifications: N-terminal proline conjugated to a 40 kd (20 kD x 2 arm) branched PEG moiety via a linker
With B1 the “EC50 (read off the curve)” value was about 8 pM.

— patent US20210275641A1 (SYNTHEKINE, published 2021)
